{"source": "paper PMC8684745", "about": "(Molecular Biology of the Cell, 2021)", "molecules": {"B1": {"name": "GFP-CC (CC domain of human Mff isoform 4, amino acids 149–197, on the C-terminus of GFP) (domain or fragment)", "chain": "SGGGGISNIDTTIEGTSDDLTVVDAASLRRQIIKLNRRLQLLEEENKERAKREGGGS"}}, "key": {"[1]": {"molecular_target": "Drp1 (full-length human Drp1 isoform 3, Drp1 000) (human) (UniProt O00429)", "assay": "TIRF microscopy"}, "[2]": {"molecular_target": "Drp1/actin bundles (actin filaments prebundled by Cy5-Drp1) (human | rabbit) (UniProt O15027)", "sequence (O15027 whole entry)": "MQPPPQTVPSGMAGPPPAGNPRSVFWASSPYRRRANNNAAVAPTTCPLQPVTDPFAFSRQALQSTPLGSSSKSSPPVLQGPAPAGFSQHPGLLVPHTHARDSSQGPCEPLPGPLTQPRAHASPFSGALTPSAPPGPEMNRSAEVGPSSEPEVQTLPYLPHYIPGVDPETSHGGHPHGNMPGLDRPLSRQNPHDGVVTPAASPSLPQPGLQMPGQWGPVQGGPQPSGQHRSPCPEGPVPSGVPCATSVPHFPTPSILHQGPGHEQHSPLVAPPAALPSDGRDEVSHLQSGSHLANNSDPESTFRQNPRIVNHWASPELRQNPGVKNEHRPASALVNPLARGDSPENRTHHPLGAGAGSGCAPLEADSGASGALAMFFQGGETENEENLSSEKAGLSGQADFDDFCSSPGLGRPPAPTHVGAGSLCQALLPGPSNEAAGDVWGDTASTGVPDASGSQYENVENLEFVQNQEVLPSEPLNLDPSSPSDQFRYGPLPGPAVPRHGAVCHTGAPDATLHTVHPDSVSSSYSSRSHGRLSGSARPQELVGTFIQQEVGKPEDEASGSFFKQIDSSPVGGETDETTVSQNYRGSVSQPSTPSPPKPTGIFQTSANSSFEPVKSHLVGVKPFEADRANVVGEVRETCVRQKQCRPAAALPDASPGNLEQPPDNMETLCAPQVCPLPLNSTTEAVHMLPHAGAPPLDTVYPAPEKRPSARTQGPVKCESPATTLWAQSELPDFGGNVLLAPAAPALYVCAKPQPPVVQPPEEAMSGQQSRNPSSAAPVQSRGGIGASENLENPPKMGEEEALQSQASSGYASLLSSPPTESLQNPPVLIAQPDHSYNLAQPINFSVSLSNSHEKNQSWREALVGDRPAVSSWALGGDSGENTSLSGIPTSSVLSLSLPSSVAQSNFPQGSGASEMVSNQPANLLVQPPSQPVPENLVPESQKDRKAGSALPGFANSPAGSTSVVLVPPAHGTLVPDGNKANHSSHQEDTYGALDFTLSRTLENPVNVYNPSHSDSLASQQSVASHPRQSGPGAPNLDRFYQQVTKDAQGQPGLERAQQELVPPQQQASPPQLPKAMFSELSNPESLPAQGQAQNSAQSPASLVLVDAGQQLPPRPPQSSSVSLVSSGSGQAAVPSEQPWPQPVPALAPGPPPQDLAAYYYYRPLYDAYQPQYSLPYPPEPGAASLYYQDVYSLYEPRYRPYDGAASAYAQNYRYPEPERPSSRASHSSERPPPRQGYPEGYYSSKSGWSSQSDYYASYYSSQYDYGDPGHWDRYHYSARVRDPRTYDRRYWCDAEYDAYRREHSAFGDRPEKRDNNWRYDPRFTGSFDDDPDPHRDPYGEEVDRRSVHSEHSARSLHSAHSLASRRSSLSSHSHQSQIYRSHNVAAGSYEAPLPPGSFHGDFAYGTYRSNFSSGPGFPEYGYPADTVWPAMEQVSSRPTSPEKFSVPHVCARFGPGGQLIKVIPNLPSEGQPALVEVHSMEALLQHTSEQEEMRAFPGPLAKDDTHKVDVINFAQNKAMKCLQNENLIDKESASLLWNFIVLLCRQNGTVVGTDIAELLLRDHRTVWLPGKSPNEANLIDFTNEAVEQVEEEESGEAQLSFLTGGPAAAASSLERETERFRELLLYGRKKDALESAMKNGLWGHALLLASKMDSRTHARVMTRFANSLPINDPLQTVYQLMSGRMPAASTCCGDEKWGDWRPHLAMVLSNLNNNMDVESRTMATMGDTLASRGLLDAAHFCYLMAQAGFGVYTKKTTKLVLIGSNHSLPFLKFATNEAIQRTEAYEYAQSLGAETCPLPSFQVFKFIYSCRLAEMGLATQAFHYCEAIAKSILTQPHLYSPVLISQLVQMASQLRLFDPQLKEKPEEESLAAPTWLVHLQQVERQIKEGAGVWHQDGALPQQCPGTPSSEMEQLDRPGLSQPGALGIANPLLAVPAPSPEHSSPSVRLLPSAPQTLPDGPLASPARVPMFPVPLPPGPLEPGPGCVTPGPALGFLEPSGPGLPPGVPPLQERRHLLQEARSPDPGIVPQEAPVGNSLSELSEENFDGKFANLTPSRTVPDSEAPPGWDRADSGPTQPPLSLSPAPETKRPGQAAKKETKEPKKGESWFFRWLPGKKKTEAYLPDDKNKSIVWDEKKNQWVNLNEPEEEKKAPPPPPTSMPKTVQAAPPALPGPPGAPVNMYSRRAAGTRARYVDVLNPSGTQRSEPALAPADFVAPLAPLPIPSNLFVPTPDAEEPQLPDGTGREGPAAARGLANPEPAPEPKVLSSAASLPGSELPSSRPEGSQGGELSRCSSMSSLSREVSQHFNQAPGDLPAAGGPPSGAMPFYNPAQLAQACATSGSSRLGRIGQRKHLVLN", "assay": "TIRF microscopy"}, "AUC": {"molecular_target": "the molecule itself", "assay": "AUC"}}, "data": [{"molecule": "Mff-L2P (Mff-∆TM with L179P and L186P) (from UniProt Q9GZY8-4 1-218) (domain or fragment)", "values": [{"measurement": "fold less binding than Mff-∆TM", "setting": "[1]", "result": 5, "unit": "fold"}]}, {"molecule": "Mff-∆TM (cytoplasmic region of human Mff isoform 4, C-terminally 6His-tagged) (from UniProt Q9GZY8-4 1-218) (domain or fragment)", "values": [{"measurement": "percent of Mff-∆TM remaining after wash", "setting": "[2]", "result": 50, "unit": "%"}]}, {"molecule": "B1", "values": [{"measurement": "stoichiometry N", "setting": "AUC", "result": 3}]}]}
